Data taken from patent US9777300 (University of California, dated 2017).

B1: Bacteriophage T5 protein pb5 expressed in E. coli with a 6x-His tag (ligand)
chain: MSFFAGKLNNKSILSLRRGSGGDTNQHINPDSQTIFHSDMSHVIITETHSTGLRLDQGAGDYYWSEMPSRVTQLHNNDPNRVVLTEIEFSDGSRHMLSGMSMGVGAKAYGIINPQIMSQGGLKTQITASADLSLDVGYFNTGTSGTIPQKLRDGTGCQHMFGAFSGRRGFASSAMYLGGAALYKSAWSGSGYVVADAGTLTIPSDYVRHPGARNFGFNAIYVRGRSCNRVLYGMEGPNYTTGGAVQGASSSGALNFTYNPSNPESPKYSVGFARADPTNYAYWESMGDPNDSANGPIGIYSEHLGIYPSKITWYVTNLVYNGSGYNIDGGLFNGNDIKLSPREFIIKGVNVNNTSWKFINFIEKNFNVGNRADFRDVGCNLSKDSPSTGISGIATFGLPTTESNNAPSIKGGNVGGLHANVVSIYNFLPSASWYVSSNPPKIGNNYGDVWSENLLPLRLLGGSGSTILSGNIVFQGNGSVHVGTVGLDLNSSRNGAIVCTMEFIDDTWLSAGGIGCFNPTEMLSQGAEYGDSRFRIGGNTINKKLHQILSLPAGEYVPFFTIKGTVVNACKLQAAAYNPTPYWVSGLPGSVGQTGYYTLTYYMRNDGNNNISIWLDSSMSNIIGMKACLPNIKLIIQRLT
notes: it is placed C-terminal here only because of the label 'pb5-His'; also called pb5-His; His-pb5; not shown: 6x-His tag
B2: Qdot-pb5 conjugate (CdSe/ZnS quantum dots conjugated to pb5 by carbodiimide coupling) (other)
chain: B1 chain
modifications: CdSe/ZnS quantum dot (Qdot) coupled by carbodiimide (EDC) chemistry; site of coupling and number of pb5 per Qdot not stated
notes: Two colours were used in the pulse labeling (Qdot532-pb5, Qdot602-pb5); the protein part is the same purified His-tagged pb5; also called Qdot-pb5s; Qdot532-pb5; not shown: 6x-His tag of the purified pb5

How the values were obtained:
[1] = target: T1, E. coli FhuA, outer membrane iron transporter protein (E. coli, UniProt P06971 34-747); assay: fluorescence microscopy, live E. coli cells expressing FhuA, 50 nM His-tagged pb5, detected with fluorescent anti-His antibody
T1 construct: whole, on cells; also called outer membrane iron-transporter (E. coli)
T1 sequence: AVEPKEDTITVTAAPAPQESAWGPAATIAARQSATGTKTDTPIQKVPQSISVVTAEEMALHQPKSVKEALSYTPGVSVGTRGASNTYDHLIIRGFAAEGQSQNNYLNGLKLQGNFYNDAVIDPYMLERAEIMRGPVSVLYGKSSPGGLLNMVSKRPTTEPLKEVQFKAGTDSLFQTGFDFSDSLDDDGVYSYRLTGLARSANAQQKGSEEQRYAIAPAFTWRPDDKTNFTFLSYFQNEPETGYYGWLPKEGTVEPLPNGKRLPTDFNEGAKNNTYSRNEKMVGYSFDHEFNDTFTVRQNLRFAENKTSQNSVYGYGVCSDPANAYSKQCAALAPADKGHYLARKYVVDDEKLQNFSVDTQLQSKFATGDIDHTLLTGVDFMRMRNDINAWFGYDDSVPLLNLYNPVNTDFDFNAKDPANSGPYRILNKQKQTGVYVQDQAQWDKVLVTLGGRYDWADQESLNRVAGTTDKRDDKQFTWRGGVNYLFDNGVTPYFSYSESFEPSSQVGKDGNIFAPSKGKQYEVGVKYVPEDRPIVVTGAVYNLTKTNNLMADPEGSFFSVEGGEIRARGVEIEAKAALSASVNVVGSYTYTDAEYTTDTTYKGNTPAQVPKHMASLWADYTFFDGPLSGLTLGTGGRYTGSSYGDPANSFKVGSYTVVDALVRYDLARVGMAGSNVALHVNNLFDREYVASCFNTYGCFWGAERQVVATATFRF

[2] = target: T1, E. coli FhuA, outer membrane iron …; assay: flow cytometry, FhuA on E. coli cells against FhuA on R. eutropha cells (FIG. 14E)
[3] = target: T1, E. coli FhuA, outer membrane iron …; assay: flow cytometry titration with 2.5 to 20 nM Qdot-pb5, FhuA on R. eutropha cells against FhuA on E. coli cells (FIG. 19)

Row | Binder | binding result [1] | fold binding efficiency, E. coli cells against R. eutropha cells [2] [fold] | fold lower total binding, R. eutropha cells against E. coli cells [3] [times lower]
1 | B1 | binds | – | –
2 | B2 | – | ~3.4 | ~3.4
